Assay: yeast display, Sf9 membrane polyspecificity reagent, FACS + sequencing; frameworks hold sequencing errors
Outline: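 In a synthetic yeast display library (Saccharomyces cerevisiae BJ5465), nanobody expression was induced with galactose for 36–48 hours. FACS gates were set low and high (top ~1%) using anti-HA fluorescence for expression and streptavidin fluorescence for binding of the Sf9 membrane reagent. Each polyreactivity label is drawn from the gate of origin.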

Row | Sequence | polyreactivity (PSR sort gate)
1 | QVQLVESGGGLVQAGGSLRLSCAASGSIFVWYVMGWYRQAPGKERELVAVISRSGGSTYYADSVKGRFTISRDNAKNTVYLQMNSLKPEDTAVYYCAADSRSYYRDVDYWGQGTQVTVSS | low polyreactivity
2 | QVQLVESGGGLVQAGGSLRLSCAASGSIFVYNAMGRYRQAPGKERELVAAISRSGASTYYADSVKGRFTISRDNAKNTVYLQMNSLKPEDTAVYYCAAEFRQGGYTFGYWGQGTQVTVSS | high polyreactivity
3 | QVQLVESGGGLVQAGGSLRLSCAASGSIFVYNAMGWYRQAPGKEREFVAAITKRVGRTYYADSVKGRFTISRDNAKNTVYLQMNSLKPEDTAVYYCAAVLSYTGGFDYWGQGTQVTVSS | high polyreactivity
4 | QVQLVESGGGLVQAGGSLRLSCAASGSIFVYNAMGWYRQAPGKERELVAAISTSGGRTYYADSVKGRFTISRDNAKNTVYLQMNSLKPEDTAVYYCNALGYWRRVVDGFDYWGQGTQVTVSS | high polyreactivity
5 | QVQLVESGGGLVQAGGSLRLSCAASGSIFVYNAMGWYRQAPGKEREWVAGITLIGGSTYYADSVKGRFTISRDNAKNTVYLQMNSLKPEDTAVYYCNADVAPGIFYGYDSWGQGTQVTVSS | low polyreactivity
6 | QVQLVESGGGLVQAGGSLRLSCAASGSIFVYNAMGWYSPAPGQERELVAAITYSGGRTYYADSVKGRFTISRDNAKNTVYVQMNSLKPEDTAVDFCAADLTSKSSPQGYRYDYWGQGTQVTVSS | low polyreactivity
7 | QVQLVESGGGLVQAGGSLRLSCAASGSIFVYYAMGWYRQAPGKERELGAAISSTGGRTYYADSVKGRFTISRDNAKNTVYLQMNSLKPEDTAVYYCAKTPTVVEFDYWGQGTQVTVAS | low polyreactivity
8 | QVQLVESGGGLVQAGGSLRLSCAASGSIFVYYAMGWYRQAPGKERELVAAINSSGGRTYYADSVKGRFTISRDNAKNTVYLQMNSLKPEETAVYYCAAVYRYWTSYNGRNYWGQGTQVTVSS | high polyreactivity
9 | QVQLVESGGGLVQAGGSLRLSCAASGSIFVYYAMGWYRQAPGKERELVATISSDVSTYYSDSVKGRFTISRDNAKNTVYVQMNRLKPEDTAVDYCAATVSFDWAYSFSLDLEDDYWGQGTQVTVSS | low polyreactivity
10 | QVQLVESGGGLVQAGGSLRLSCAASGSIFVYYAMGWYRQAPGNERELVAAISKTGGRTYYADSVKGRFTISRDNAKNTVYLQMNSLKPEDSAVYYCAARYTIRYKRYDYWGQGTQVTVSS | high polyreactivity
11 | QVQLVESGGGLVQAGGSLRLSCAASGSIFWFNAMGWYRQAPGNERELVATIRYSGGSTYYADSVKGRFTISRDNAKNTVYLQMNSLKPEDTAVYYCAAVSRYSRSGYEYWGQGTQVTVSS | high polyreactivity
12 | QVQLVESGGGLVQAGGSLRLSCAASGSIFWGIAMGWYRQAPGTERELVAAISWGGGRTYYADSVKGRFTLSRDNAKNTVYLQMNSLKPEDTAVYYCNTRYPYVVSTGYDYWGQGTQVTVSS | high polyreactivity
13 | QVQLVESGGGLVQAGGSLRLSCAASGSIFWGNAMGCYRQAPGKERELVASISDSGGSTYADSVKGRFTISRDNAKNTVYLQMNSLKPEDTAVYYCAADDWYSAGIRNWYYGGYDYWGQGTQVTVSS | low polyreactivity
14 | QVQLVESGGGLVQAGGSLRLSCAASGSIFWGYAMGWYRQAPGKERELVAAITRGDTTNYADSVKGRFTISRDNAKNTVYLQMNSLKPEDTAVYYCAATPDPPHTYEYWGQGTQVTVSS | low polyreactivity
15 | QVQLVESGGGLVQAGGSLRLSCAASGSIFWGYAMGWYRQAPGKERELVATIPNRGGSTYYADSVKARFTISRDNAKNTVYLQMNSLKPEDTAVYYCAVERDYWTKASYYWGRGTQVTVSS | low polyreactivity
16 | QVQLVESGGGLVQAGGSLRLSCAASGSIFWINAMGGYRQAPGKEREVVADIDVSGGSTYYADSVKGRFTISRDNAKNTVYLQMNSLKPEDTAVYYCAADAWVRTYHYGYWGQGTQVTVSS | low polyreactivity
17 | QVQLVESGGGLVQAGGSLRLSCAASGSIFWKYAMGWYRQAPGKERELVAAISWSDGSTYYADSVKGRFTISRDNAKNTVYLQMNSLKPEVTAVYYCNTPPQWLGRYITITFDYWGQGTQVTVSS | low polyreactivity
18 | QVQLVESGGGLVQAGGSLRLSCAASGSIFWLYAMGWYRQAPGKERELVAAINWSTGRTYYADSVKGRFTISRDNAKNTVYLQMNSLKPEDTAVYYCAADLNWWFDYSSPDEMYYWGQGTQVNVSS | high polyreactivity
19 | QVQLVESGGGLVQAGGSLRLSCAASGSIFWLYAMGWYRQAPGKERELVASITGGGSTNYADSVKGRFTISRDNAKNTVYLQMNSLKPEDTAVYYCAKRYYRPGRKRTGLDYWGQGTQVTVSS | high polyreactivity
20 | QVQLVESGGGLVQAGGSLRLSCAASGSIFWPNTMGWYRQAPGKERELVATISSGGDTSYADSVKGRFTISRDNAKNTVYLQMNSLKPEDTAVYYCAKRITVDDVHPRAQTYNYWGQGTQVTVSS | low polyreactivity
21 | QVQLVESGGGLVQAGGSLRLSCAASGSIFWPYAMGWYRQAPGKEREFVDAITWSGGSTYYADSVKGRFTISRDNAKNTVYLQMNSLKPEDTAVYYCAAVPYTRWKGADGDYWGQGTQVTVSS | high polyreactivity
22 | QVQLVESGGGLVQAGGSLRLSCAASGSIFWPYTMGWYRQAPGKEWELVAAITSTDSTDYADSVKGRFTISRDNAKNTVYLQMNSLKPEDTAVYYCNADYQSRTGSVIYTAHPYDYWGQGTQVTVSS | low polyreactivity

Row | Sequence | polyreactivity (PSR sort gate)
23 | QVQLVESGGGLVQAGGSLRLSCAASGSIFWRNAIGWYRQAPRKERELVAAISRVGSTNYADSVKGRFTISRDNAKNTVYLQMTSLKPEDTAVYYCAKDSIWRVYEYDYWGQGTQVTVSS | low polyreactivity
24 | QVQLVESGGGLVQAGGSLRLSCAASGSIFWRNAMGWYRQAQGKEREFVATITWSGDSTYYADSVKGRFTISRDNAKNTVYLQMNSLKPEDTAVYYCATDWRNWGYDSWGQGTQVTVSS | low polyreactivity
25 | QVQLVESGGGLVQAGGSLRLSCAASGSIFWRYAMGWDRQAPGKERELVATITSRGGSTYYADSVKGRFTISRDNAKNTVYLQMNSLKPEDTAVYYCAATGLPGYYAYDYWGQGTQVTVSS | low polyreactivity
26 | QVQLVESGGGLVQAGGSLRLSCAASGSIFWRYAMGWYRQAPGKERELVAAISSSGSTYYADSVKGRFTISRDNAKNTVYLQMNSLKPEDTAVYYCAKRASALLRHSYDYWGQGTQVSVSS | low polyreactivity
27 | QVQLVESGGGLVQAGGSLRLSCAASGSIFWRYDMGWLDRRLGKKGSSLPLLLVLVTTRTTQTPVKGRFTISRDNAKNTVYLQMNSLKPEDTAVYYCAADLRASGLKYEYWGQGTQVTVSS | low polyreactivity
28 | QVQLVESGGGLVQAGGSLRLSCAASGSIFWRYTMGWYRQAPGKERELVAAISTRGGSTYYADSVKGRFTISRDNAKNTVYLQMNSLKPEDTAVYYCNAVEGSRLPYDYWGQGTQVTVSS | low polyreactivity
29 | QVQLVESGGGLVQAGGSLRLSCAASGSIFWSNAMGWYRQEPVKEREMVARISTSGGRTYYADSVKGRFTISRDNAKNTVYLQMNSLKPEDTAVYYCADDPYRWYYSTFYYWGQGTQVTVSS | high polyreactivity
30 | QVQLVESGGGLVQAGGSLRLSCAASGSIFWSYAMGWYRQAPGKEREFVAAISGGDGTTYYADSVKGRFTISRDNAKNTVYLQMNSLKPEDTAVYYCNAVGYWYGSLEYDYWGQGTQVTVSS | low polyreactivity
31 | QVQLVESGGGLVQAGGSLRLSCAASGSIFWSYAMGWYRQAPGKERELVAAITYSGTSTYYADSVKGRFTISRDNAKNTVYLQMNSLKPEDTAVYYCNADAYVYFDDGDYWGQGTQVTVSS | low polyreactivity
32 | QVQLVESGGGLVQAGGSLRLSCAASGSIFWTNAMGWYRQAPGKERELVAAIRVSTGSTYYADSVKGRFTISRDNAKNTVYLQMNSLKPEDTAVYYCAARTYGWGYDYWGQGTQVTVSS | low polyreactivity
33 | QVQLVESGGGLVQAGGSLRLSCAASGSIFWWYGMGWDRQAPGKERELVADITSGGGTYYADSVKGRFTISRDNAKNTVYLQLNSLKPEDTAVYYCAADVRAYRFDYYFDYWGQGTQVTVSS | low polyreactivity
34 | QVQLVESGGGLVQAGGSLRLSCAASGSIFWYNTMGWYRQAPGKERELVAAISYRGGRTYYADSVKGRFTISRDNAKNTVYLQMNSLKPEDTAVYYCNAPRYLGGGQDALGDYWGQGTQVTVSS | high polyreactivity
35 | QVQLVESGGGLVQAGGSLRLSCAASGSIFWYNTMGWYRQAPGKERELVAAITFSGGSTYYADSVKERFTISRDNAKNTVYLQMNSLKPEDTAVYYCAAVFYSAVGYYYWGQGTQVTVSS | low polyreactivity
36 | QVQLVESGGGLVQAGGSLRLSCAASGSIFYAYAMGWYRQAPGKERELVATISRGVNTNYADSVKGRFTISRDNAKNTVYLQMNSLKPEDTAVYYCNARLRYGHGYGYWGQGTQVTVSS | low polyreactivity
37 | QVQLVESGGGLVQAGGSLRLSCAASGSIFYDNAMGWSRQAPGKERELVASIRWSGDSTYYADSVKGRFTISRDNAKNTVYLQMNSLKPEDTAVYYCAADPVEPYFTAIAYDYWGQGTQVTVSS | low polyreactivity
38 | QVQLVESGGGLVQAGGSLRLSCAASGSIFYDYAMGCYRQAPGKERELVDRISSGGSTYYADSVKGRFTISRDNAKNTVYLQMNSLKPEDSAVYYCNAGVEFAASLYYSDNYDYWGQGTQVTVSS | low polyreactivity
39 | QVQLVESGGGLVQAGGSLRLSCAASGSIFYDYAMGWYRQAPGKERELVAAITASGGSTYYADSVKGRFTISRDNAKNTVYLQMNSLKPEDTAVYYCAAESESYEQVGEMDSWGQGTQVTVSS | low polyreactivity
40 | QVQLVESGGGLVQAGGSLRLSCAASGSIFYDYTMGWYRQAPGKERELVAAINSGGSTNYADSVKGRFTISRDNAKNTVYLQMNSLKPEDTAVYYCAAVRYNSRVSTTPSEMYYLGQGTQVTVSS | low polyreactivity
41 | QVQLVESGGGLVQAGGSLRLSCAASGSIFYENAMGWYRQAPGKERELVAAIRDSGGSTYYADSVKGRFTISRDNAKNTVYLQMNSLKPEDTAVYYCNAVPVYYDYDYWGQGTQVTVSS | low polyreactivity
42 | QVQLVESGGGLVQAGGSLRLSCAASGSIFYFNAMGWYRQAPGKERELVAAISSGGGTNYADSVKGRFTISRDNAKNTVYLQMNSLKPEDTAVYYCAAAVSLFYPTWYYFSYDYWGQGTQVTVSS | low polyreactivity
43 | QVQLVESGGGLVQAGGSLRLSCAASGSIFYFNAMGWYRQAPGKERELVAAISTSGGSTYADSVKGRFTISRDNAKNTVYLQMNSLKPEDTAVYYCAADYLTSRSRTFDYWGQGTQVTVSS | low polyreactivity
